Laboratory results from article PMC11444335, “Next-generation cell-penetrating antibodies for tumor targeting and RAD51 inhibition” (Oncotarget, 2024).
Positions count from the first letter of the chain named. Names and notes keep the numbering of the source.

B1: fully humanized full-length 3E10 variant V31 (VH3 + VL1, IgG1) (antibody, V domains shown)
VH: EVQLVESGGGLVQPGGSLRLSCAASGFTFSNYGMHWVRQAPGKGLEWVAYISSGSSTIYYADTVKGRFTISRDNAKNSLYLQMTSLRAEDTAMYYCARRGLLLDYWGQGTLVTVSS
VL: DIVLTQSPASLAVSPGQRATITCRASKSVSTSSYSYMHWYQQKPGQPPKLLIYYASYLESGVPARFSGSGSGTDFTLTINPVEANDTANYYCQHSREFPWTFGGGTKVEIK
notes: humanized VH3 (CDR graft of 3E10 on germline IGHV3-48*01, with N31); human IgG1 heavy chain constant region; humanized VL1 (CDR graft of 3E10 on germline IGKV7-3*01); IgG1; all humanized variants contain the D31N mutation; source: Chinese hamster ovary cells, purified (Genscript)
B2: full-length chimeric WT 3E10 (murine variable chains, human IgG1 Fc domain) (antibody, V domains shown)
VH: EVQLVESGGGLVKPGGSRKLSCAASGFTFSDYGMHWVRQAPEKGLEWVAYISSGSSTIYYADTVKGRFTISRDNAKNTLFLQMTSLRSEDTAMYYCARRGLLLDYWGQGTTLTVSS
VL: B1 VL with P15L, T22S, Y53K, T78N, N80H, A84E, N85E, T87A, N89T, V108L
notes: murine 3E10 VH, wild type (D31 in CDR1); human IgG1 heavy chain constant region; murine 3E10 VL, wild type; IgG1 chimera; also called parental 3E10; source: purified antibody

Target: T1, human RAD51 (Homo sapiens, UniProt Q06609)
T1 construct: DNA repair protein RAD51, human, expressed from the CMV-hRAD51 plasmid (Addgene #125570); Endogenous RAD51 of the MCF7 cells is also present and would be detected by the same anti-RAD51 blot; also called hRAD51; source: MCF7, transiently transfected with CMV-hRAD51 plasmid, in cells and lysate
Assay: cross-linking + co-IP; CLIP: MCF7 cells transfected with 10 ug CMV-hRAD51 plasmid, treated with 500 nM purified antibody for 6 h, UV crosslinked, lysed; antibody captured on Protein A/G beads, eluate blotted with anti-RAD51; RAD51 signal normalized to Fc signal of the lysate and to WT
Conditions: one partner purified

T1 sequence (Q06609 whole entry): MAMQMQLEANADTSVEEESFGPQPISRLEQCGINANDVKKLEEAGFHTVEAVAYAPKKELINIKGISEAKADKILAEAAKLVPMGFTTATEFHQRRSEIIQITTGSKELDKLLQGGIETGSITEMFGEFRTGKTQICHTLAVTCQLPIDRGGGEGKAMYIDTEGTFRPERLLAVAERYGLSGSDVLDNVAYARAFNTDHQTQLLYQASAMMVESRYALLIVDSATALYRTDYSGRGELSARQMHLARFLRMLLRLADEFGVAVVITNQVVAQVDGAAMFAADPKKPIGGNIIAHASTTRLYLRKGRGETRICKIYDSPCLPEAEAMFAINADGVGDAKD

| Binder | binding result |
| --- | --- |
| B1 | binds |
| B2 | binds |
